Results on two sequences are retold here after PMC7921949.

This data set deals with PD-L1 on CT26 murine colon cancer cells (mouse (CT26)) (UniProt Q9EP73). Nature of the data set: flow cytometry on CT26 cells. The conditions noted are these: apparent Kd on whole cells, PBS, room temperature, 30 min, 2x10^5 CT26 cells in 250 uL, three PBS washes, Y = Bmax X/(Kd + X), n = 2.
Sequence of PD-L1 on CT26 murine colon cancer cells (mouse (CT26)) (Q9EP73 19-290): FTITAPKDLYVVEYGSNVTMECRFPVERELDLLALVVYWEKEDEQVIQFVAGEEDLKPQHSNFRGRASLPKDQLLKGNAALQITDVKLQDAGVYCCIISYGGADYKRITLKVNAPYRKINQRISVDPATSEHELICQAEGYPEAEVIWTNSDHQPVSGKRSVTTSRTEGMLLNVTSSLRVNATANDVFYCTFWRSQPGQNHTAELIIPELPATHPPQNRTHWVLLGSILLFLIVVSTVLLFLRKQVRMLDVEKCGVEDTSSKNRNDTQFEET

As for “ACGGGCCACATCAACTCATTGATAGACAATGCGTCCACTGCCCGT [free PD-L1 aptamer (Apt)]”, the Kd stood at 283 nM.

Consider “CGGCGATCCGGCCATAGTGGATTGCGGGCCAGTGAAAAAAACGGGCCACATCAACTCATTGATAGACAATGCGTCCACTGCCCGT / CTCACTGGCCCGCAATCCTGAGCACGTGGCTGACGAAAAAACGGGCCACATCAACTCATTGATAGACAATGCGTCCACTGCCCGT / CCGTCAGCCACGTGCTCACCGAATGCTGCGCAACCAAAAAACGGGCCACATCAACTCATTGATAGACAATGCGTCCACTGCCCGT / CGGTTGCGCAGCATTCGGACTATGGCCGGATCGCCAAAAAACGGGCCACATCAACTCATTGATAGACAATGCGTCCACTGCCCGT [Apt-HJ (tetravalent aptamer Holliday junction)]”, for which, where the note is “tetravalent, first nt at 5' end of each strand phosphorothioate in some Apt-HJ, unclear for binding assay”, the Kd worked out at 145 nM.
